No end group written: not given here.
Columns and labels:
[1] = molecular target: hemagglutinin (HA) of influenza virus type A subtype H3 A/Wuhan/359/95 (H3N2), ether extract (influenza virus type A, A/Wuhan/359/95 (H3N2))
[2] = molecular target: hemagglutinin H3 (GM3 inhibition ELISA, strain not stated)
[3] = molecular target: hemagglutinin (HA) of influenza virus type A subtype H1 A/PR/8/34 (H1N1), ether extract (influenza virus type A, A/PR/8/34 (H1N1)), P03452; assay: phage ELISA, HA immobilised on plate, normalised to A-1 = 1
[4] = molecular target: hemagglutinin (HA) of influenza virus type A subtype H3 A/Wuhan/359/95 (H3N2), ether extract (influenza virus type A, A/Wuhan/359/95 (H3N2)); assay: as above

## ARLPPTMVRPNGPQP-NH2 [e-1 peptide, chemosynthesized, …-NH2]
[1]
  fold binding relative to A-1: 1.2 fold

## ARLSPTMVHPNGAQP-NH2 [A-1 peptide, chemosynthesized, …-NH2]
[2]
  IC50: 1900 µM

## ARLPRTMVHPKPAQP (modifications not checked) [filamentous phage fd presenting peptide s-2 (SEQ ID NO: 3)]
[3]
  fold binding activity relative to A-1: 3 fold
[4]
  fold binding activity relative to A-1: 3 fold

## ARLPRTMVHPKPAQP-NH2 [s-2 peptide, chemosynthesized, …-NH2]
[1]
  fold binding relative to A-1: 2.1 fold

Reference: patent US20100119588A1
